This note sets out measurements from publication doi:10.1101/2020.04.16.045708 (bioRxiv, 2020).

Changes are numbered by the printed parent chain.

One data set has as its target T1, C9ORF72-SMCR8^M2 complex (human, UniProt Q96LT7;Q8TEV9, T862A | F863A | H865A | L867A).
T1 sequence 1: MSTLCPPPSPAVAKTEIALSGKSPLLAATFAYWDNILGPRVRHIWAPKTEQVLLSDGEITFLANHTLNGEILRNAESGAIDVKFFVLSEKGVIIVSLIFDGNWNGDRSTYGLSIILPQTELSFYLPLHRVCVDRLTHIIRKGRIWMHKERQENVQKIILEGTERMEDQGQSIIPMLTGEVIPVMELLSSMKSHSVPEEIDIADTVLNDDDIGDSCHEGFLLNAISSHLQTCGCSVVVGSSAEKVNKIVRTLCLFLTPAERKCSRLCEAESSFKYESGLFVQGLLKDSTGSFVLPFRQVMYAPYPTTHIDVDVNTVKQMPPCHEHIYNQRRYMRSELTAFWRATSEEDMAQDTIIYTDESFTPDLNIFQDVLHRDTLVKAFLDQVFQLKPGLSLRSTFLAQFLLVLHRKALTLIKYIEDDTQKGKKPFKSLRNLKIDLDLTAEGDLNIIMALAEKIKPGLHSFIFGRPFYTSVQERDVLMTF
T1 sequence 2: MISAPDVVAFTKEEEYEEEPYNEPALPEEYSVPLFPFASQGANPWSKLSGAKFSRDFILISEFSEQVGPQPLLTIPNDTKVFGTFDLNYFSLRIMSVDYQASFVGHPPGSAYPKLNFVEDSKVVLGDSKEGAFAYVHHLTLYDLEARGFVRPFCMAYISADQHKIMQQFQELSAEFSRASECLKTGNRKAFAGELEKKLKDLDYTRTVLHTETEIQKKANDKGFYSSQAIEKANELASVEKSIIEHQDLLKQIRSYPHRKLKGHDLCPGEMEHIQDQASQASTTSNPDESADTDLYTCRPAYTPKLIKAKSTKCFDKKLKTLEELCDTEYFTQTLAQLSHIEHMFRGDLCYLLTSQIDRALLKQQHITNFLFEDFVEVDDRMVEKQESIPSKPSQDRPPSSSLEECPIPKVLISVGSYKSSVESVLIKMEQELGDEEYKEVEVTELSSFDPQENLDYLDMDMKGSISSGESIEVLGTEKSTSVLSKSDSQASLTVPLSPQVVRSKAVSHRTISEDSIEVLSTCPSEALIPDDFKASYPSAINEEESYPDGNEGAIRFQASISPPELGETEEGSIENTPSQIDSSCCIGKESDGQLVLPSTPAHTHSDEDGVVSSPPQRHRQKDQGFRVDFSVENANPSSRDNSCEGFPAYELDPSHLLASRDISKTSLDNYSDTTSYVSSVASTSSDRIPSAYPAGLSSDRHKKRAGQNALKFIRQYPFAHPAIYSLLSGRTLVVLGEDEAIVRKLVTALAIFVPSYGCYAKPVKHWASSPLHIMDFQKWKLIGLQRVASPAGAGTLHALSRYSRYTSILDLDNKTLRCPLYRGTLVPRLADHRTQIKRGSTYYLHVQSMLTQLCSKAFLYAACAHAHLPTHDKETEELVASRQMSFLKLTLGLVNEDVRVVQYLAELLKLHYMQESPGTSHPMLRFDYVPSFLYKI
As to the kind of experiment: pull-down.

The target of another data set is T2, C9ORF72-SMCR8^M3 complex (human, UniProt Q96LT7;Q8TEV9, E907A | K910A | Y913A | M914A).
T2 sequence 1: T1 sequence 1
T2 sequence 2: T1 sequence 2 with A862T, A863F, A865H, A867L, E907A, K910A, Y913A, M914A
In words: pull-down.

In another data set the target is T3, C9ORF72-SMCR8 complex (human, UniProt Q96LT7;Q8TEV9).
T3 sequence 1: T1 sequence 1
T3 sequence 2: T1 sequence 2 with A862T, A863F, A865H, A867L
As to the kind of experiment: SEC. On the technique in general: In gel filtration, larger molecules generally elute earlier.

The data set “AUC” deals with the molecule itself. In words: AUC.
The target of another data set is T4, C9ORF72 (human, UniProt Q96LT7 1-481).
T4 sequence: T1 sequence 1
As to the kind of experiment: AUC.

B1: WDR41 (WD40 repeat-containing protein 41) (natural protein)
chain: MLRWLIGGGREPQGLAEKSPLQTIGEEQTQNPYTELLVLKAHHDIVRFLVQLDDYRFASAGDDGIVVVWNAQTGEKLLELNGHTQKITAIITFPSLESCEEKNQLILTASADRTVIVWDGDTTRQVQRISCFQSTVKCLTVLQRLDVWLSGGNDLCVWNRKLDLLCKTSHLSDTGISALVEIPKNCVVAAVGKELIIFRLVAPTEGSLEWDILEVKRLLDHQDNILSLINVNDLSFVTGSHVGELIIWDALDWTMQAYERNFWDPSPQLDTQQEIKLCQKSNDISIHHFTCDEENVFAAVGRGLYVYSLQMKRVIACQKTAHDSNVLHVARLPNRQLISCSEDGSVRIWELREKQQLAAEPVPTGFFNMWGFGRVSKQASQPVKKQQENATSCSLELIGDLIGHSSSVEMFLYFEDHGLVTCSADHLIILWKNGERESGLRSLRLFQKLEENGDLYLAV
In general, stoichiometry N refers to a count of units in the complex or per binding partner. Consider B1, for which the binding result with C9ORF72-SMCR8^M2 complex and with C9ORF72-SMCR8^M3 complex was “binds” in each case. In the data set with C9ORF72-SMCR8 complex, the “stoichiometry N” value was 1.

B2: C9ORF72-SMCR8-WDR41 complex (complex)
chain 1: T1 sequence 1
chain 2: T1 sequence 2 with A862T, A863F, A865H, A867L
chain 3: B1 chain
For B2, in “AUC”, the “stoichiometry N” value stood at 2.

B3: SMCR8 Longin domain (SMCR8^Longin), co-expressed with C9ORF72 (domain or fragment)
chain: MISAPDVVAFTKEEEYEEEPYNEPALPEEYSVPLFPFASQGANPWSKLSGAKFSRDFILISEFSEQVGPQPLLTIPNDTKVFGTFDLNYFSLRIMSVDYQASFVGHPPGSAYPKLNFVEDSKVVLGDSKEGAFAYVHHLTLYDLEARGFVRPFCMAYISADQHKIMQQFQELSAEFSRASECLKTGNRKAFAGELEKKLKDLDYTRTVLHTETEIQKKANDKGFYSSQAIEKANELASVEKSIIEHQDLLKQIRSYPHRKLKGHDLCPGEMEHIQDQASQASTTSNPDESADTDLYTCRPAYTPKLIKAKSTKCFDKKLKTLEELCDTEYFTQTLAQLSHIEHMFRGDL
B3: in the data set with C9ORF72, the binding result is given as “binds”.
